Patent US20050287643A1 (YALE UNIVERSITY, published 2005)

Assays:
Mena1-112 EVH1 domain [1] = biological target: T1, Mena1-112 EVH1 domain (UniProt Q03173 1-112); experiment: tryptophan fluorescence perturbation
T1 construct: range 1-112

Mena1-112 EVH1 domain [2] = biological target: T1, Mena1-112 EVH1 domain; experiment: fluorescence polarization competition against pGolemi^Flu
KIX domain of CBP = KIX domain of CBP (Homo sapiens (Human), UniProt Q92793 587-666); experiment: method not stated (supplemental information)
Chain of KIX domain of CBP (Q92793 587-666 limits assumed, form in doubt): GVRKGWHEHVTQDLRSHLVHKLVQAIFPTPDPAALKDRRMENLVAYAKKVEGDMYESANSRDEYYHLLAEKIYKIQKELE

T1 sequence (Q03173 1-112 limits assumed): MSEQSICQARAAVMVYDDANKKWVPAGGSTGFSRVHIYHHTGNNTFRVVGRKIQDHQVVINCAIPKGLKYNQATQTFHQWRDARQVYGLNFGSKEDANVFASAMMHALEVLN

PFPPTPP [PPII7] gave a Kd (Mena1-112 EVH1 domain [1]) of 480 µM.

B1: ActA11 (peptide)
peptide: FEFPPPPTDEE
notes: domain: PPII repeat 2; also called 11 residue peptide comprising PPII repeat 2 of L. monocytogenes ActA
Binder B1 has an IC50 (Mena1-112 EVH1 domain [2]) of 4 µM.

Work on PFPPTPPGEEAPVEDLIRFYNDLQQYLNVV (designed binder) [pGolemi] yielded a Kd (KIX domain of CBP) of 15 µM.
